The nature of this series: label from the status in PepcDB records.
For “MTVTAPNALNFECETGNYHTFCPISCVAWLYQKIEDSFFLVIGTKTCGYFLQNAMGVMIFAEPRYAMAELEEGDISAQLNDYEELKRLCLEIKRDRNPSVIVWIGTCTTEIIKMDLEGLAPKLEAEIGIPIVVARANGLDYAFTQGEDTVLAAMAARCPTSTAISDPEERNPIQRLLNFGKKKEEVQAQSSQYHPHPPLVLFGSLPDPVVTQLTLELKKQGIKVSGWLPAKRYTELPVIDEGYYVAGVNPFLSRTATTLIRRRKCQLITAPFPIGPDGTRTWIEQICATFGIQPQGLAEREAETWQKLSDYLELVRGKSVFFMGDNLLEISLARFLIRCGMRVLEIGIPYMDKRYQAAELALLSQTCAEMGHPLPTIVEKPDNYNQLQRIKALQPDLVITGMAHANPLEARGISTKWSVEFTFAQIHGFGNARDILELVTRPLRRNQALAGLGWQKLVAH”, the protein production entry is given as “not failed”.

For “MEKQPNKLIREKSPYLLQHAWNPVDWHPWGEEAFSRARETGRPIFLSSGYSTCHWCHVMEHESFENAETAALLNRHFVPVKLDREEHPDVDHLYMMFVQATTGRGGWPMSVWMTPDLKPFFGGSYFPATERWGMPSFRSVLEHLANLWEHDRPRLLASAGSIMDQLSGLTRP”, the protein production entry is recorded as “failed”.

“MSELFSNDNIFLNVNVNSQNEAIEKAGKALVDSGAVTDAYIQAMKDREQVVSTFMGNGLAIPHGTDEAKTNVIHSGLTLLQIPEGVDWDGEVVKVVVGIAGKDGEHLDLLSKIAITFSEEENVDRIVQAKSAEEIKQVFEEADA”: the protein production entry is recorded as “failed”.

For “MKNLKNKHFALLYLVLFLVLAKLSPFIITALIMGLYLSIIIDYVARFLEVFIKKPRVLPRVISNVLVFLTIAYSAVNFFPVIVREAQKVFSEIDRIRSGLENIDIPGWLSSILSSISASFSEGALSLVNKIVGYVPSFITAAILIVITAFIVSSLKRLIKENVHYLFPTNPSDGKEFLKTTYTEFERFVGGQVLVAIFVGLFVGFGAFIFKIPSAFFLGMLAFVTDFVPYLGVVISAIPLLMLAFSVHGLSGLLIGTIILVAANQLEMWVLAPKIQSNTLNVHWFIILIMILILGDLFSFGGVLIALPFLIFLKNFWKQYVMGG”, the protein production entry is on record as “failed”.

Take “MLGLKTSIIGRRVIYFQEITSTNEFAKTSYLEEGTVIVADKQTMGHGRLNRKWESPEGGLWLSIVLSPKVPQKDLPKIVFLGAVGVVETLKEFSIDGRIKWPNDVLVNYKKIAGVLVEGKGDKIVLGIGLNVNNKVPNGATSMKLELGSEVPLLSVFRSLITNLDRLYLNFLKNPMDILNLVRDNMILGVRVKILGDGSFEGIAEDIDDFGRLIIRLDSGEVKKVIYGDVSLRFL”: the protein production result is recorded as “not failed”.

As to “MDRSLLMAIIMLVLGNNIVILSDSLIKLLDGFEAPFQFVLYRQISATLMLLPFMLLFKRPLLPKNIRWHATRAHIFLLGTVFMVISLTTLPLATANAIFYAAPIITVVLARMFFKERVTRLSLITAVLGMVGVLVIVNPSSTNIFALAALVVATTLALNNLLVKKLPAEHSILDTLYLTNLLGIPLASAMAWFEGASFDVSTFLISVGSSLFAMIYAGTCVFAYRAAESNKVTSAEYTGLIGAVILGIVFFTETPDARFYIGSVLIIAPLTVLTLRNSNRSA”, the protein production result is reported as “failed”.

In the case of “VTIDNIQKTVAEYYKIKVADLLSKRRSRSVARPRQXAXALAKELTNHSLPEIGDAFGGRDHTTVLHACRKIEQLREESHDIKEDFSNLIRTLSS”, the protein production entry was “not failed”.

On to “MEDERIKLLFKEKALEILMTIYYESLGGNDVYIQYIASKVNSPHSYVWLIIKKFEEAKMVECELEGRTKIIRLTDKGQKIAQQIKSIIDIMENDT”, for which the protein production result was “not failed”.

In the case of “MMIHMEYYLVVSTIMMFAGIYGFFTRRNTLAILISVELMLNATDINFAVFNRFLFPGELEGYFFALFSIAISAAETAIAIAIMINIYRNIRSIQVKNLDELKW”, the protein production result is on record as “failed”.

Take “MKNITKLSTVALSLLLCTACAASNTSTSKTQSHHPKQTKLTDKQKEEPKNKEAADQEMHPQGAVDLTKYKAKPVKDYGKKIDVGDGKKMNIYETGQGKIPIVFIPGQAEISPRYAYKNLIERLSKKYKIYTVEPLGYGLSDIPTKPRTLENITKEIHTGLNKIGVKNFYLAAHSLGGMYSLNYAKNYPEEVRGFIGMDTSTPWMEGEQKTKYDPESAKWAMKLPDVDDKTNEQYLSIAKKINGNKSQRDEDERLGDNLGKLKNVKFPKGMPTKYFLADQSVEGIKLRQADFKGLKNWDQQHIDLSEDPKDASVEIFKGSHNIFQTQYEHMAKAIDGFIQSHQK”: the protein production result is recorded as “failed”.

Regarding “MEILKKTGKFLLGVVIGVAIMMFADRYYVKGKRLIADNLPKEPVEYVNPYMGNISHLLVPTYPTVHLPNSMLRVYPERGDFTGDRLGGLPLIVTSHRGSSAFNLSPYQGDEAGLKPVIQYSYDREKIVPYRYQVYLDEANIEVDYAPSHQSAVYSLTFEKDGPAYLVFNSRNGELKCDGNTVSGFQYVDKKTKVYLYAETDKTPEKSGVLASGTVKYGKSSVEGKDAALTLAFSGQKEIGVRYGISFISTEQARKNLEREINSYDVSAIARIGRNEWNDALGKIQVSGGSENDKTVFYTSLYRCYERPVNLSEDGKYYSAFDGKIHEDGGRSFYTDDWIWDTYRATHPLRILIDKERETDIINSYLLMAQQMGTNWMPTFPEVTGDSRRMNSNHAVATVIDAWRKGVRGFDLEKAYEAARKGIEEKTLIPWSAAPSGWLDEFYKEHGYIPALKPGEKETVADVSPWEKRQPVAVTLGTAYDEWCLSQIAAELGKKEDAEYFLARSYNYRNLFNPETRFFHPKDKDGKFIEGVDYRYSGGLGARDYYDENNGYIYRWDVQHNIGDLVSLIGGNEVFTAALDSMFDTPLGMSKWQFYSFLPDHTGNVGMFSMANEPSLHIPYLYNYAGQPWKTQKRIRVLLDQWFRNDLMGVPGDEDGGGMSAFVVFSMMGFYPVTPGSPTYNIGSPVFSDVKIDLGGGNVFEIVADGASHDNKYVQSATLNGEELSGPWFDHSRITAGGVLSLKMGPKANKKWGIGNPPPSVGPMQK”, the protein production entry is on record as “failed”.

As for “MESTKSNDIPILRNVSDSFSDHYGKYLQRCGIFVPKDGDSSGPDAYVVFHNGQTRYVVAFSFTFYHKTEFSKRDIEKEAEQFFQEVISVLNDGSPSSVQLCFQFVVVCTRYDRSVVFSSEEQNIVEDASYLVTEHSAGSTLNESRRSCLQLVVVSQRNLERFLGRENFDILRKIGKASREEFRKDFSVWCKTVFESMSDEYVSPLEAKPFNVTLRVARNIRPRTNEENRMQMEGFQTAMQVEEGNTRGEQRVAASSSLSSSFDWNTFLREYCGLSEEDVAYCLPKVEDIDMDELPAVTKEILRDLGIDKPALRLKIRSSIRSYLANER”, the protein production result is reported as “failed”.

As for “PDLYNHAIVIGYGRVGSMLAQLLQSRHVPLLVIDDNSEHVLKAHAAGIPAIRGSAAADLVLAEAHPERAKIAVLAIPQPLEAGEILAKLRALNPELTLVARAQNDAEVKHLLGHGADATVVAEHEMAHSLAEMVLSSTNHPNSTRLQPAIA”, the protein production entry was “failed”.

Take “MASSAFAFPSYIITKGGLSTDSCKSTSLSSSRSLVTDLPSPCLKPNNNSHSNRRAKVCASLAEKGEYYSNRPPTPLLDTINYPIHMKNLSVKELKQLSDELRSDVIFNVSKTGGHLGSSLGVVELTVALHYIFNTPQDKILWDVGHQSYPHKILTGRRGKMPTMRQTNGLSGFTKRGESEHDCFGTGHSSTTISAGLGMAVGRDLKGKNNNVVAVIGDGAMTAGQAYEAMNNAGYLDSDMIVILNDNKQVSLPTATLDGPSPPVGALSSALSRLQSNPALRELREVAKGMTKQIGGPMHQLAAKVDEYARGMISGTGSSLFEELGLYYIGPVDGHNIDDLVAILKEVKSTRTTGPVLIHVVTEKGRGYPYAERADDKYHGVVKFDPATGRQFKTTNKTQSYTTYFAEALVAEAEVDKDVVAIHAAMGGGTGLNLFQRRFPTRCFDVGIAEQHAVTFAAGLACEGLKPFCAIYSSFMQRAYDQVVHDVDLQKLPVRFAMDRAGLVGADGPTHCGAFDVTFMACLPNMIVMAPSDEADLFNMVATAVAIDDRPSCFRYPRGNGIGVALPPGNKGVPIEIGKGRILKEGERVALLGYGSAVQSCLGAAVMLEERGLNVTVADARFCKPLDRALIRSLAKSHEVLITVEEGSIGGFGSHVVQFLALDGLLDGKLKWRPMVLPDRYIDHGAPADQLAEAGLMPSHIAATALNLIGAPREALF”: the protein production result is “failed”.

On to “MGAKGKFWILTMVVAISGLSQGVLLPLIAIILEERGISAGINGFHATGIYLGVLLISPFIEAPLHKYGYKPIILVGGGLVAVSILAFPIWFNLYFWFILRLLIGVGDHMLHFSSQTWIGAMSDPSKRGRNMAIYGLFFSLGFAIGPQLVNLAEINANLPFFLSGILVLIAWGLVWFVRNDFVGEKAVIRKISFWGSLKRFSDVFKLAWVAMIPPFLYGILETGLNATFPVVGLRDGLDTMMIAMVISSFSVGTIIFQVPIGIVSDKFGRGKVLPLLTGAGAVVFVLTAFVKIPVLYVVFFFVLGILLGSLYSLGLSYMTDLTPLELLPAGNILVGMCFSLGSIIGPSATGMMIGIFGNQIFYFVVAGILVLGCLLLIFGARKDALEKKMKN”, for which the protein production entry is “failed”.

“MSIRSLGYLRIEATDMAAWREYGLKVLGMVEGKGAPEGALYLRMDDFPARLVVVPGEHDRLLEAGWECANAEGLQEIRNRLDLEGTPYKEATAAELADRRVDEMIRFADPSGNCLEVFHGTALEHRRVVSPYGHRFVTGEQGMGHVVLSTRDDAEALHFYRDVLGFRLRDSMRLPPQMVGRPADGPPAWLRFFGCNPRHHSLAFLPMPTSSGIVHLMVEVEQADDVGLCLDRALRRKVPMSATLGRHVNDLMLSFYMKTPGGFDIEFGCEGRQVDDRDWIARESTAVSLWGHDFTVGARG”: the protein production entry is “not failed”.

“MNTTVEKQQIITSNTEQWKMYSKLEGKEYQIHISKPKQPAPDSGYPVIYVLDGNAFFQTFHEAVKIQSVRAEKTGVSPAIIVGVGYPIEGAFSGEERCYDFTPSVISKDAPLKPDGKPWPKTGGAHNFFTFIEEELKPQIEKNFEIDKGKQTLFGHSLGGLFALHILFTNLNAFQNYFISSPSIWWNNKSVLEKEENLIIELNNAKFETGVFLTVGSLEREHMVVGANELSERLLQVNHDKLKFKFYEAEGENHASVVPTSLSKGLRFISYV”: the protein production result is on record as “not failed”.

Consider “MATIGSLLLWAITIYSYMIIGYILMSWFPNARESSFGQFLGSIVEPYLAPFRKIIPPLGMIDISPIVAIFALTFARYGVHAIFF”, for which the protein production entry was “failed”.

Consider “MGIDELYKKEFGIVAGVDEAGRGCLAGPVVAAAVVLEKEIEGINDSKQLSPAKRERLLDEIMEKAAVGIGIASPEEIDLYNIFNATKLAMNRALENLSVKPSFVLVDGKGIELSVPGTCLVKGDQKSKLIGAASIVAKVFRDRLMSEFHRMYPQFSFHKHKGYATKEHLNEIRKNGVLPIHRLSFEPVLELLTDDLLREFFEKGLISENRFERILNLLGARKSVVFRKERTNHNLPLF”, for which the protein production entry was “not failed”.

As for “MNNPDLPYRQALECLSQKQYNFTEVRRLLTEAFSAGHPAAAFELAKHLMDADSPYQDREQGMEMLRIAAEQGHPYARYNLAYIQELEGAPPETLIPLYRPLAEEGLPEAQVRLMYLLYASRHFEEALEWAKTSAKNNNPHGQYLLAQYCRYGTPPDFETAHLLYRKSAAQGLPEAHWQLGLQYRFGQGTKVDTAQAVNHLRAAAQQGYIPAYTPLAELILPTAPDEAVHWFQQAAQENDPDAHAALADIYLQGKHLERNHKLALHHAEAAAAERHPEGLRILGDICRYGLGIAPDTEKARHYYRQAAEAGSLSAYQKLISDSALNHPDQYGGIKDSAIRRQRAERLYQKAQALHYGLQCAPEYAAALKLYTEAAELGHSKAQTNLGSMYYFGQGMTADYNEARKWFEKAAAKKDSMAFYNLACIHYSGHGVEPDKEKACRYLQEAINNGYGQKSVLQELLQQWQNAV”, the protein production entry is recorded as “failed”.

Values taken from a protein production outcome set (Wang et al. 2014).
